Experimental data published in patent US5550216A, “Gelatinase A inhibitor, and analytical reagent thereof for the determination of gelatinase A” (Oriental Yeast Co., Ltd., priority 1993, dated 1996).

Tests used:
[1] = biological target: T1, human progelatinase A (Homo sapiens, UniProt P08253); experiment: Reverse zymography of gelatinase A inhibitor on gelatine-containing SDS polyacrylamide gel; type: biochemical; details: 0.2 μg/lane protein; gel incubated with 1 μg/ml human progelatinase A and 1 mM APMA
T1 construct: obtained from the culture supernatant of T98G human glioblastoma cell line; made in house; host or cells: Natural (endogenous) secretion of the T98G human glioblastoma cell line, purified from the culture supernatant
T1 sequence (P08253 110-660): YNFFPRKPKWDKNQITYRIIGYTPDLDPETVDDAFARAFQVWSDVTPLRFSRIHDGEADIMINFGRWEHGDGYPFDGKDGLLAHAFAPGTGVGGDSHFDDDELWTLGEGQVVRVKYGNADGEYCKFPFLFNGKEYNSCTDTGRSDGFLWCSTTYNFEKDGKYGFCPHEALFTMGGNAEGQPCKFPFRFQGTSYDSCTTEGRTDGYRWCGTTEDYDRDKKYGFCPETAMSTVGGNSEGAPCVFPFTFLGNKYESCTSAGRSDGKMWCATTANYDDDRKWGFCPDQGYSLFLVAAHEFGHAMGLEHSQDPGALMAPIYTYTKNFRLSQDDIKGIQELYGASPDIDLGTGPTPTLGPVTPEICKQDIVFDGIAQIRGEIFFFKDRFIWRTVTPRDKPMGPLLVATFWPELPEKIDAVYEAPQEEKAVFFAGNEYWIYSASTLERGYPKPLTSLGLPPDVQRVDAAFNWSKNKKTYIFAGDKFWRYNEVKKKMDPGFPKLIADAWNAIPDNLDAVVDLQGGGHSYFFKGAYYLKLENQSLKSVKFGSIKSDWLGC
Source text: The large triangle arrow represents 100-kDa inhibitor. Three small triangle arrows represent TIMP (28 kDa), unidentified 22-kDa inhibitor and TIMP-2 (20 kDa). The bands of negative image (white lines) indicate gelatine degradation activity secreted by tumor cells. b represents the results of non-reductive SDS-PAGE of purified 100-kDa inhibitor, while c represents the results of SDS-PAGE (lanes 1 to 3) and the reverse zymograms of 100-kDa inhibitor (lane 1, 2, 4 and 5) and human TIMP (lane 3 and 6). Equal amount (0.2 μg/lane) of the protein was analyzed under reductive condition (lanes 2 and 5) and non-reductive condition (lane 1, 3, 4 and 6). […] 100-kDa inhibitor (200 μg) was incubated with 0.3 μg of endoproteinase Lys-C (Sigma, St. Louis, Mo.) for 60 minutes at 30° C. in 60 μl of 50 mM Tris-HCl (pH 7.5) containing 2M urea and 1M NaCl, and a part of digestion products were subjected to electrophoresis. As a result, a peptide from 439V through 687 k of the amino acid sequence in FIG. 1 was obtained.
The supernatant of EJ-1 cell culture which had been incubated for 2 days in serum-free RPMI1640 medium was used for the preparation. The reverse zympgraphy of gelatinase A inhibitor was conducted on polyacrylamide gel containing 0.1% SDS and 1 mg/ml of gelatine by a modified Herroh's method. […]

[2] = biological target: T2, gelatinase A (Homo sapiens, UniProt P08253); experiment: Hydrolysis of synthetic peptide βAP10-20 by activated gelatinase A (reverse phase HPLC), enzyme kinetic analysis; type: biochemical; details: hydrolysis of β-AP10-20 by APMA/stromelysin activated gelatinase A; from slope of Dixon plot (1/v vs (I))
T2 construct: made in house; host or cells: Natural (endogenous) secretion of the T98G human glioblastoma cell line
T2 sequence (P08253 110-660): T1 sequence (P08253 110-660)
Procedure: (§1) FIGS. 5 (A) and (B) show the degradation of synthetic peptide βAP10-20by gelatinase A. By heparin affinity chromatography according to the method by (Kelkenbrock), TIMP-2-free progelatinase A was isolated from TIMP-2 binding form. Proenzyme (1 μg) was activated by incubating for 1 hour at 37° C. in 20 mMTris-HCl (pH 7.5) containing 10 mMCa^2+ with 1 mMAPMA and 0.25 μg of rat stromelysin. Then, the activated enzyme was incubated for 6 hours at 37° C. in the absence or presence of 5 μg of 100-kDa APP in 50 μl of Tris-HCl/Ca^2+ buffer with 20 nmol (28 μg) of synthetic peptide β-AP10-20 (cf. FIG. 2D). Then the mixture was admixed with 0.5 ml of 0.05% trifluoroacetic acid (TFA), and loaded to Cosmosil 5C18 reverse phase HPLC column (4.6×150 mm) (Nacalai Tesque, Kyoto, Japan). The column was eluted at the flow rate of 0.5 ml/min with 15 ml of 0 to 80% linear gradient acetonitrile in 0.05% TFA. The amino acid sequence of the […] was analyzed by a protein sequencer. As previously reported, rat stromelysin was purified with the proenzyme form and activated by APMA. Under the condition described above, stromelysin hardly hydrolyzed βAP10-20.
(§2) FIG. 5(A) and (B) represent enzyme kinetic analysis of the inhibition of gelatinase A activity by 100-bDa APP. […] The maximum concentration of 100-kDa APP ([…]) corresponded to about 910 nM. […]

[3] = substrate: CC(C)C[C@H](NC(=O)[C@H](CCCCN)NC(=O)[C@H](CCC(N)=O)NC(=O)[C@H](Cc1c[nH]cn1)NC(=O)[C@H](Cc1c[nH]cn1)NC(=O)[C@@H](NC(=O)[C@H](CCC(=O)O)NC(=O)[C@@H](N)Cc1ccc(O)cc1)C(C)C)C(=O)N[C@H](C(=O)N[C@@H](Cc1ccccc1)C(=O)N[C@@H](Cc1ccccc1)C(=O)O)C(C)C; experiment: as above; type: biochemical, human; details: other: hydrolysis of βAP10-20 by activated gelatinase A; Lineweaver-Burk plots, 30 to 400 μM substrate; pH 7.5
Procedure: as §1, §2

## 100-kDa APP: secretory form of APP (gelatinase A inhibition protein), 100k, from EJ-1 culture fluid; 18L through 687K of APP770
[1]
  inhibitor bands on the reverse zymograms: markedly stained gelatine bands (inhibitor bands)
[2]
  Ki: 40 nM

## human TIMP: known gelatinase inhibitor (28 kDa) used as comparison in reverse zymography [reference compound]
[1]
  inhibitor bands on the reverse zymograms: markedly stained gelatine bands (inhibitor bands)

B1: gelatinase A (Homo sapiens) (protein)
chain: T1 sequence (P08253 110-660)
notes: made in house; host or cells: Natural (endogenous) secretion of the T98G human glioblastoma cell line
[3]
  Km: 130 µM
  Vmax: 3.9 nmol/h
